# ± gives the standard deviation of the averaged measurements.
# Tested on: ATP
# Assay: switch fluorescence ratio, 500 uM ATP over buffer (Cy3 cluster intensity, sum of 5 cycles each) (fold (ratio)); higher = stronger signal-on switching upon ATP binding; sequences stand for … in TCGTCGGCAGCGTCAGATGTGTATAAGAGACAGTTTTTTTTTTTTTTTTTTTTTTTTT…TC
# Conditions: aptamer strand: ATP DNA aptamer (quencher-CACCTGGGGGAGTATTGCGGAGGAAGG + anchor), 100 nM annealed; ATP concentration: 500 uM
# Method in brief: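 After annealing to 100 nM quencher-labelled ATP aptamer, Cy3-labelled switching-strand clusters on a modified Illumina MiSeq flow-cell were imaged in selection buffer. A second image followed after 15 min with 500 uM ATP at 22 °C, and five such buffer/ATP cycles were done, each separated by NaOH stripping and re-annealing. The fluorescence ratio, averaged per switch-domain sequence, is summed target-cycle over summed buffer-cycle Cy3 intensity per cluster, with clusters outside 100-1000 RFU excluded.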
# 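Also: ATP exposure 15 min at 22 °C before imaging.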
row,Sequence,switch fluorescence ratio
1,TTTGAGTGTT,0.985 ± 0.011
2,TTTGAGTTTT,0.989 ± 0.034
3,TTTGATAAAA,0.972 ± 0.039
4,TTTGATATAA,0.991 ± 0.031
5,TTTGATCACG,1.02 ± 0.031
6,TTTGATCGGG,0.978 ± 0.015
7,TTTGATGGGT,0.993 ± 0.048
8,TTTGATGGTT,1.01 ± 0.011
9,TTTGATGTGC,1.07 ± 0.064
10,TTTGATGTTG,0.976 ± 0.033
11,TTTGATTTAG,0.989 ± 0.026
12,TTTGCAAATT,1.03 ± 0.039
13,TTTGCAAGTA,1.2 ± 0.3
14,TTTGCAATAA,2.35 ± 1.7
15,TTTGCACAGC,0.997 ± 0.051
16,TTTGCACTGT,0.998 ± 0.055
17,TTTGCATCTT,0.9984 ± 0.0022
18,TTTGCATGAT,0.982 ± 0.017
19,TTTGCATTTG,1.03 ± 0.013
20,TTTGCCGCGG,0.995 ± 0.023
21,TTTGCCGGCG,0.97337 ± 0.00069
22,TTTGCCGGTA,1.01 ± 0.014
23,TTTGCCTGTA,0.992 ± 0.032
24,TTTGCCTT,1.06 ± 0.051
25,TTTGCGAACA,1.06 ± 0.079

row,Sequence,switch fluorescence ratio
1,TTTGCGAGGT,0.972 ± 0.026
2,TTTGCGCGCG,0.992 ± 0.021
3,TTTGCGGAAT,1.05 ± 0.027
4,TTTGCGGGTT,1 ± 0.057
5,TTTGCTAGTT,0.988 ± 0.009
6,TTTGCTATAT,1.18 ± 0.33
7,TTTGCTGGAA,0.995 ± 0.015
8,TTTGCTTAGG,0.993 ± 0.037
9,TTTGCTTCGT,1.04 ± 0.048
10,TTTGCTTTGG,0.997 ± 0.019
11,TTTGGACGTC,0.992 ± 0.037
12,TTTGGAGGGA,1.48 ± 0.8
13,TTTGGAGTGT,1.08 ± 0.12
14,TTTGGATCAG,1.01 ± 0.02
15,TTTGGATGAA,1.05 ± 0.013
16,TTTGGATGCT,1.05 ± 0.14
17,TTTGGCAAGG,1.01 ± 0.054
18,TTTGGCATGC,1.11 ± 0.14
19,TTTGGCATGG,1.024 ± 0.0073
20,TTTGGCCAAA,1.05 ± 0.046
21,TTTGGCCAAG,0.996 ± 0.029
22,TTTGGCCCCT,1 ± 0.03
23,TTTGGCGAAC,1.02 ± 0.02
24,TTTGGCGGCG,0.993 ± 0.067
25,TTTGGCGGGG,0.999 ± 0.04

row,Sequence,switch fluorescence ratio
1,TTTGGCGTTG,0.9881 ± 0.0086
2,TTTGGCTATT,0.976 ± 0.028
3,TTTGGCTTAT,0.989 ± 0.022
4,TTTGGGAAGG,0.985 ± 0.034
5,TTTGGGACTT,1.01 ± 0.035
6,TTTGGGAGGA,1.02 ± 0.047
7,TTTGGGATTT,1.04 ± 0.15
8,TTTGGGGAAT,1.02 ± 0.033
9,TTTGGGGGCA,0.989 ± 0.041
10,TTTGGGGGTG,1.02 ± 0.038
11,TTTGGGGTAC,1.72 ± 1.3
12,TTTGGGGTAT,0.995 ± 0.028
13,TTTGGGTAGG,1.03 ± 0.062
14,TTTGGGTAGT,1.04 ± 0.034
15,TTTGGGTGCA,0.987 ± 0.038
16,TTTGGGTGTC,0.979 ± 0.014
17,TTTGGGTTCT,1.03 ± 0.031
18,TTTGGGTTTG,1.01 ± 0.029
19,TTTGGTATAG,0.975 ± 0.01
20,TTTGGTCAAG,1.01 ± 0.016
21,TTTGGTGGAT,0.9794 ± 0.0058
22,TTTGGTTGAG,1 ± 0.047
23,TTTGGTTGG,1.0076 ± 0.00057
24,TTTGGTTGTA,0.965 ± 0.014
25,TTTGGTTTCA,0.994 ± 0.013

row,Sequence,switch fluorescence ratio
1,TTTGGTTTGA,1 ± 0.046
2,TTTGTAACAT,0.966 ± 0.047
3,TTTGTACGGG,0.999 ± 0.036
4,TTTGTAGCAG,1.09 ± 0.028
5,TTTGTAGCCG,1.01 ± 0.061
6,TTTGTAGCTG,1.4 ± 0.046
7,TTTGTAGTAT,1.03 ± 0.1
8,TTTGTATTAC,1.32 ± 0.38
9,TTTGTATTTT,0.992 ± 0.026
10,TTTGTCAGTA,0.989 ± 0.018
11,TTTGTCCCG,1.01 ± 0.044
12,TTTGTCGACC,0.992 ± 0.0055
13,TTTGTCGGGT,0.994 ± 0.014
14,TTTGTCTAG,1.022 ± 0.00058
15,TTTGTCTGGT,0.992 ± 0.017
16,TTTGTCTTTT,1.02 ± 0.045
17,TTTGTGAGT,0.979 ± 0.017
18,TTTGTGAGTA,1 ± 0.023
19,TTTGTGGAGT,1 ± 0.021
20,TTTGTGGGA,0.997 ± 0.021
21,TTTGTGGGCC,1.03 ± 0.093
22,TTTGTGGGCG,0.932 ± 0.021
23,TTTGTGGGG,0.978 ± 0.023
24,TTTGTGGGGT,1.01 ± 0.047
25,TTTGTGGGTC,0.995 ± 0.043

row,Sequence,switch fluorescence ratio
1,TTTGTGGTTG,0.992 ± 0.032
2,TTTGTGTCCG,0.946 ± 0.088
3,TTTGTGTGGT,0.978 ± 0.017
4,TTTGTGTGTA,0.9846 ± 0.0097
5,TTTGTGTTCT,0.9786 ± 0.0048
6,TTTGTGTTTA,0.9791 ± 0.0042
7,TTTGTGTTTT,1.03 ± 0.044
8,TTTGTTAAAA,1.04 ± 0.061
9,TTTGTTACCG,0.995 ± 0.012
10,TTTGTTAGAA,1.02 ± 0.012
11,TTTGTTCCTT,1.01 ± 0.04
12,TTTGTTCTGG,1.49 ± 0.73
13,TTTGTTGCAG,0.994 ± 0.036
14,TTTGTTGCCT,1.014 ± 0.0088
15,TTTGTTGTGC,1.01 ± 0.016
16,TTTGTTTATA,0.9992 ± 0.0034
17,TTTGTTTGAT,0.999 ± 0.034
18,TTTGTTTTGT,1.01 ± 0.051
19,TTTGTTTTTC,1.02 ± 0.013
20,TTTTAAAAAG,1 ± 0.012
21,TTTTAAAACG,1.04 ± 0.084
22,TTTTAAACAC,1.07 ± 0.11
23,TTTTAAAGCT,1.09 ± 0.039
24,TTTTAACCCC,1.26 ± 0.19
25,TTTTAACGTG,0.979 ± 0.021

row,Sequence,switch fluorescence ratio
1,TTTTAACTTT,1.03 ± 0.052
2,TTTTAAGGAG,1 ± 0.047
3,TTTTAAGTTT,0.978 ± 0.027
4,TTTTAATCTC,0.979 ± 0.024
5,TTTTAATGTG,1 ± 0.016
6,TTTTACAAAA,0.981 ± 0.02
7,TTTTACCACC,1.22 ± 0.049
8,TTTTACGCAC,1.81 ± 0.024
9,TTTTACGGAT,1.01 ± 0.012
10,TTTTACGGGA,1.26 ± 0.41
11,TTTTACGGGC,1.018 ± 0.0039
12,TTTTACGGTG,0.978 ± 0.03
13,TTTTACTCCG,3.1 ± 1.9
14,TTTTACTGTT,1.12 ± 0.096
15,TTTTACTT,0.998 ± 0.042
16,TTTTAGAGT,0.988 ± 0.024
17,TTTTAGATGA,0.966 ± 0.027
18,TTTTAGCAAC,1.2325 ± 0.0007
19,TTTTAGCATT,0.992 ± 0.062
20,TTTTAGCGGT,0.974 ± 0.02
21,TTTTAGCTCT,0.963 ± 0.015
22,TTTTAGGCAC,1.03 ± 0.018
23,TTTTAGGCCC,1.09 ± 0.073
24,TTTTAGGCTG,0.961 ± 0.027
25,TTTTAGGCTT,1.01 ± 0.026

row,Sequence,switch fluorescence ratio
1,TTTTAGGGAA,1.03 ± 0.035
2,TTTTAGGTCC,0.977 ± 0.023
3,TTTTAGTACC,1.018 ± 0.0081
4,TTTTAGTTTG,1.01 ± 0.035
5,TTTTATAAAT,1.02 ± 0.0071
6,TTTTATAATA,1.05 ± 0.034
7,TTTTATACGT,1.01 ± 0.016
8,TTTTATAGAA,1.0092 ± 0.00051
9,TTTTATAGAT,0.977 ± 0.015
10,TTTTATAGCA,1.02 ± 0.059
11,TTTTATAGGG,0.948 ± 0.027
12,TTTTATCAA,1.07 ± 0.12
13,TTTTATCACT,1.03 ± 0.034
14,TTTTATCCGT,1.06 ± 0.066
15,TTTTATCGGG,0.971 ± 0.016
16,TTTTATCTTG,1.03 ± 0.017
17,TTTTATGACA,1.02 ± 0.033
18,TTTTATGACC,1.008 ± 0.0066
19,TTTTATGCAA,1.28 ± 0.3
20,TTTTATGCCC,0.9772 ± 0.0032
21,TTTTATGCTT,0.97025 ± 0.00037
22,TTTTATGGAC,1.03 ± 0.03
23,TTTTATGGAT,1.01 ± 0.013
24,TTTTATGGCG,1.04 ± 0.0024
25,TTTTATGGGT,0.992 ± 0.018

row,Sequence,switch fluorescence ratio
1,TTTTATGTGT,0.992 ± 0.035
2,TTTTATGTTC,1.01 ± 0.018
3,TTTTATTAAA,1 ± 0.031
4,TTTTATTATG,1 ± 0.022
5,TTTTATTCAG,1 ± 0.03
6,TTTTATTTGC,1.01 ± 0.024
7,TTTTATTTTC,0.993 ± 0.027
8,TTTTCAAACC,0.9953 ± 0.0034
9,TTTTCAAATC,1.016 ± 0.0075
10,TTTTCAACCA,1.06 ± 0.043
11,TTTTCAAGAG,1.019 ± 0.01
12,TTTTCAAGGA,0.993 ± 0.07
13,TTTTCAAGTG,1 ± 0.029
14,TTTTCAATCG,1.01 ± 0.045
15,TTTTCAATTT,0.9758 ± 0.0064
16,TTTTCACAAT,1.17 ± 0.21
17,TTTTCACGTT,1.07 ± 0.095
18,TTTTCACTTC,1.03 ± 0.069
19,TTTTCAGTGG,1.02 ± 0.021
20,TTTTCAGTGT,0.996 ± 0.029
21,TTTTCATATC,1.04 ± 0.025
22,TTTTCATCAT,1.01 ± 0.031
23,TTTTCATTCT,1.01 ± 0.013
24,TTTTCCAGGG,1.22 ± 0.18
25,TTTTCCATTA,1 ± 0.044

# From the supplement of paper PMC10126150
